2 molecules from publication PMC2674214 (PLoS ONE, 2009) can be followed below.

For assay [1], the target named is T1, hemagglutinin (HA) of A/Anhui/1/2005 (H5N1) virus (Influenza A virus A/Anhui/1/2005 (H5N1), UniProt Q1WDM0). Kind of assay: ELISA. The settings on record: one partner purified. On the technique in general: In an ELISA, binding on a coated surface is turned into a signal by an enzyme label.
The target of the next assay is T2, rHA2 of AH/1/05 virus (Influenza A virus A/Anhui/1/2005 (H5N1), UniProt Q1WDM0, strain).
T2 construct: source: SF-9 cells infected with recombinant baculovirus (pAcUW51), on fixed cells
As to the kind of experiment: immunostaining of cells or tissue. The settings on record: one partner purified.

Assay [2] has as its target T3, rHA of AH/1/05 virus (full length HA) (Influenza A virus A/Anhui/1/2005 (H5N1), UniProt Q1WDM0).
T3 construct: source: SF-9 cells infected with recombinant baculovirus (pAcUW51), on fixed cells
As to the kind of experiment: immunostaining of cells or tissue. The conditions noted are these: one partner purified.

The next assay has as its target T4, rHA1 of AH/1/05 virus (Influenza A virus A/Anhui/1/2005 (H5N1), UniProt Q1WDM0, strain).
T4 construct: source: SF-9 cells infected with recombinant baculovirus (pAcUW51), on fixed cells
As to the kind of experiment: immunostaining of cells or tissue. The conditions noted are these: one partner purified.

Assay [3] deals with T1, hemagglutinin (HA) of A/Anhui/1/2005 …. As to the kind of experiment: immunostaining of cells or tissue. The conditions noted are these: one partner purified.
Assay [4] has as its target rHA of clade 0 H5N1 virus A/HongKong/156/97 (Influenza A virus A/Hong Kong/156/1997 …, UniProt O56140). Kind of assay: ELISA.

B1: AVFluFab03 (Fab, V domains shown)
VH: LESGGGLVQPGGSLRVSCTNSGFTFSDYAMSWVRQAPGKGLEWVSAISGNGGSSTYYADSVKGRFTISRDNSKNTMYLQMNSLRAEDTAVYYCVRDDSYDGGGQYGLHNWFDSWGQGTLVTV
VL: ELTQPPSVSGAPGQRVTISCTGSSSNIGAGYDVHWYQQLPGTAPKLLIYGNSNRPSGVPDRFSGSKSGTSASLAITGLQAEDEADYYCQSYDSSLVVFGGGTKLTVL
notes: also called Fab clone representing 25 of the 43 selected Fab clones; source: phagemid vector pComb3H, crude Fab antibody preparations
In the case of B1, the binding result in assay [1] was “binds”.

B2: AVFluIgG03 (antibody, V domains shown)
VH: B1 VH
VL: B1 VL
notes: also called rhAb AVFluIgG03; AVFluIg03; source: SF9 cells, purified on a Protein A column
Take B2: the binding result in the assay with rHA2 of AH/1/05 virus is given as “no binding”; in assay [2], “binds”; with rHA1 of AH/1/05 virus, “binds”; in assay [3], “binds”; in assay [4] it was “no binding”.
